This note sets out measurements from article PMC8696033.

The term Kd denotes the free concentration of one partner at which half of the binding sites on the other are occupied at equilibrium, for simple one-to-one binding. A low value points to tighter binding. By stoichiometry N is commonly meant a count of units in the complex or per binding partner.

The target in assay [1] is WT murine C3b (mouse). The assay is described as follows: SPR; WT murine C3b amine coupled on a CM5 chip; 2-fold dilution series of the FH protein flowed over in duplicate, 30 µl/min; HBST (10 mM HEPES, 150 mM NaCl, 0.005% Tween 20, pH 7.4); steady-state model.
The target in assay [2] is WT murine C3b (mouse).
The target in assay [3] is mouse homodimeric minimal factor H (mHDM-FH, mFH^1–5^18–20^R1–2) (mouse) (UniProt P06909). As to the kind of experiment: SEC; analytical size exclusion gel filtration; elution volume compared with mFLFH and mini-mFH. For orientation: In gel filtration, larger molecules generally elute earlier.

The substance “Mouse full length Factor H (mFLFH) (from UniProt P06909 19-1234) (natural protein)” showed a dissociation constant (Kd) in the assay with WT murine C3b (mouse) [1] of 1700 nM.
For the substance “mouse homodimeric minimal factor H (mHDM-FH, mFH^1–5^18–20^R1–2) (from UniProt P06909 19-321; P06909 1050-1234; Q61406 24-152)”, the IC50 of protection of sheep erythrocytes from lysis by mouse serum (haemolysis assay) with WT murine C3b (mouse) [2] amounted to 8 nM. The same substance had a stoichiometry N in assay [3] of 2. In addition, the Kd in the assay with WT murine C3b (mouse) [1] amounted to 500 nM.
